According to patent US20140093973A1:
“And” between values parts separate entries of the source, which are not always exact repeats. Equal values may be shown once. Read-outs that look alike come from different tables or passages of the source. Ends that are not written are not given here. * marks the point of attachment. FITC = O=C1OC2(c3ccc(O)cc3Oc3cc(O)ccc32)c2ccc(NC(=S)*)cc21

Tests used:
[1] = target: soluble HLA-A*0201 (sHLA-A*0201) (human)
[2] = target: soluble HLA-A*0201 (sHLA-A*0201) (human); remark: listed apart in the source
[3] = target: soluble HLA-A*0201 (sHLA-A*0201) (human); remark: listed apart in the source
[4] = target: soluble HLA-A*0201 (sHLA-A*0201) (human); remark: listed apart in the source
[5] = target: soluble HLA-A*0201 (sHLA-A*0201) (human); remark: listed apart in the source
[6] = target: soluble HLA-A*0201 (sHLA-A*0201) (human); remark: listed apart in the source
[7] = target: soluble HLA-A*0201 (sHLA-A*0201) (human); remark: listed apart in the source
[8] = target: soluble HLA-A*0201 (sHLA-A*0201) (human); remark: listed apart in the source
[9] = target: soluble HLA-A*0201 (sHLA-A*0201) (human); remark: listed apart in the source
[10] = target: soluble HLA-A*0201 (sHLA-A*0201) (human); remark: listed apart in the source
[11] = target: soluble HLA-A*0201 (sHLA-A*0201) (human); assay: FP real-time association kinetics, 50 ug/mL sHLA-A*0201, excess b2m, 20 C
[12] = target: soluble HLA-A*0201 (sHLA-A*0201) (human); assay: FP, sHLA-A*0201 titrated against 10 nM FITC-labeled P4, plateau of the fit
[13] = target: soluble HLA-A*0201 (sHLA-A*0201) (human); assay: FP, pFITC P4 titrated at 425 nM (20 µg/ml) sHLA-A*0201; FPmin = 27.00 mP
[14] = target: soluble HLA-A*0201 (sHLA-A*0201) (human); assay: FP, sHLA-A*0201 titrated against 10 nM FITC-labeled P4; the EC50 is an sHLA concentration
[15] = target: soluble HLA-A*0201 (sHLA-A*0201) (human); assay: FP saturation isotherm (bound against free pFITC), 425 nM sHLA-A*0201, one-site fit
[16] = target: soluble HLA-A*0201 (sHLA-A*0201) (human); assay: FP equilibrium titration with variable pFITC, 425 nM sHLA-A*0201, 20 C
[17] = target: soluble HLA-A*0201 (sHLA-A*0201) (human); assay: FP kinetics, Kd = koff/kon
[18] = target: soluble HLA-A*0201 (sHLA-A*0201) (human); assay: FP real-time association kinetics, intercept of kob against ligand concentration
[19] = target: soluble HLA-A*0201 (sHLA-A*0201) (human); remark: listed apart in the source
[20] = target: soluble HLA-A*0201 (sHLA-A*0201) (human); remark: listed apart in the source
[21] = target: soluble HLA-A*0201 (sHLA-A*0201) (human); remark: listed apart in the source
[22] = target: soluble HLA-A*0201 (sHLA-A*0201) (human); remark: listed apart in the source
[23] = target: soluble HLA-A*0201 (sHLA-A*0201) (human); remark: listed apart in the source
[24] = target: soluble HLA-A*0201 (sHLA-A*0201) (human); remark: listed apart in the source
[25] = target: soluble HLA-A*0201 (sHLA-A*0201) (human); remark: listed apart in the source
[26] = target: soluble HLA-A*0201 (sHLA-A*0201) (human); assay: standardized FP competition against 1 nM FITC-P5, 50 ug/mL sHLA-A*0201, excess b2m

In the case of KLGEFYNQMM (modifications not checked), the IC50 [1] is reported as 2870 nM, the IC50 [2] is reported as 10500 nM and the log IC50 [3] is reported as 3.31 log nM and 3.7 log nM and 3.67 log nM. It also gave an IC50 [4] of 7670 nM, an IC50 [5] of 596 nM and an IC50 [6] of 2820 nM. The log IC50 [7] was 3.08 log nM and 3.45 log nM, the IC50 [8] was 2480 nM and the IC50 [9] was 3060 nM. For the same binder, the IC50 [10] was 2480 to 10500 nM.

Binder LVFGKEVVEV (not fully specified) [A*0201/P4, FITC-labeled peptide …] has a kon [11] of 9900 M⁻¹ s⁻¹, an FPmax [12] of 230 mP and an FPmax [13] of 200 mP. The EC50 [14] was 283 nM, the Bmax [15] was 89.7 nM and the Kd [15] was 21.8 nM. For the same binder, the Kd [16] was 21.8 nM, the Kd [17] was 28.5 nM and the koff [18] was 0.000284 s⁻¹.

In the case of ALMDKVLK(FITC)V [A*0201/P5, FITC-labeled peptide ALMDKVL-K(FITC)-V], the increase of signal upon binding [19] is reported as greater than 900%, the maximum polarization signal [19] is reported as 245 mP and the % binding [20] is reported as 40%. It also gave an EC50 [21] of 327 nM, a maximal FP signal [22] of 220 to 230 mP and an FPmax [23] of 195 mP. For the same binder, the Kd [24] was 17.3 nM, the Bmax [25] was 141 nM and the Kd [25] was 17.3 nM.

DLVHFASPL (modifications not checked) was tested, and the IC50 [6] was 366000 nM.

Work on YLLPAIVHI (modifications not checked) yielded an IC50 [26] of 510 nM.
